This assay deals with T1, PfGARP aa 443-459 (…) (Plasmodium falciparum).
T1 construct: Stood on the microarray as overlapping 15-mer peptides, not as one 17-mer
The assay is described as follows: microarray of overlapping 15-mer peptides.

Text: The peptides overlapped by a single amino acid and were printed in duplicate, framed by HA control peptides.
For epitope mapping, a custom 15-mer peptide microarray was designed and printed. […] The peptides overlapped by a single amino acid and were printed in duplicate, framed by HA control peptides. […] A duplicate array was probed with polyclonal, monospecific anti-PfGARP-A mouse antibodies (red).

B1: recombinant monoclonal anti-PfGARP (rec mAb7899) (antibody, V domains shown)
VH: EAQLQQSGTELVKPGASVKLSCTASGFYIKDTYIHWVRQRPVQGLEWIGRIDPANYDTKYDPKFQGKATITADTSSNTAYLQLINLTPEDTVVYYCTSFGGTKLRFAYWGQGTLVTVSA
VL: NIMMTQSPSSLAVSAGEEVTMSCKSSQSVLYSSNQRNYLAWFQQKSGQSPKLLIYWASTRESGVPDRFTGSGSGTDFTLTISNLQVEDLAVYYCLQHFSSWTFGGGTKLEIK
notes: also called recombinant mAb7899; recombinant mAb
With B1, the binding result is recorded as “binds”.

Source of the values: patent publication US20240141028A1 (RHODE ISLAND HOSPITAL, published 2024).
